In patent US12497460B2, “Anti-MSR1 antibodies and methods of use thereof” (REGENERON PHARMACEUTICALS, INC., priority 2018, dated 2025):
Positions count from the first letter of the chain named. Names may count otherwise.

T1: His9-mMSR1 (mouse MSR1 extracellular domain) (Mus musculus, UniProt P30204)
T1 construct: mouse MSR1 extracellular domain expressed with a N-terminal nonahistidine tag; His9 (nonahistidine) (N); purchased R&D Systems 1797-MS
T1 sequence (P30204 79-458 limits assumed): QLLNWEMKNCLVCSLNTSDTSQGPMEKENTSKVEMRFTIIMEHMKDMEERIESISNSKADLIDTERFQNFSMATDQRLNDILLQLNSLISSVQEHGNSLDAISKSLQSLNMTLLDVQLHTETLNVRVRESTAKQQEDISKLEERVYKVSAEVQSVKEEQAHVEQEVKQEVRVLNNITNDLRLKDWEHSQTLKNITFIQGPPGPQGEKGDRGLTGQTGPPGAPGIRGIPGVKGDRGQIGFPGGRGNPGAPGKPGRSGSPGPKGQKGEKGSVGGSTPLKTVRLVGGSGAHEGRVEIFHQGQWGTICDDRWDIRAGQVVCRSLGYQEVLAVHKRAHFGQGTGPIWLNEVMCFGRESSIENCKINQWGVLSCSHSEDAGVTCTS

T2: Ox-LDL binding to His9-hMSR1 (Homo sapiens, UniProt P21757)
T2 construct: human MSR1 extracellular domain expressed with a N-terminal nonahistidine tag; His9 (nonahistidine) (N); purchased R&D Systems 2708-MS
T2 sequence (P21757 77-451 limits assumed): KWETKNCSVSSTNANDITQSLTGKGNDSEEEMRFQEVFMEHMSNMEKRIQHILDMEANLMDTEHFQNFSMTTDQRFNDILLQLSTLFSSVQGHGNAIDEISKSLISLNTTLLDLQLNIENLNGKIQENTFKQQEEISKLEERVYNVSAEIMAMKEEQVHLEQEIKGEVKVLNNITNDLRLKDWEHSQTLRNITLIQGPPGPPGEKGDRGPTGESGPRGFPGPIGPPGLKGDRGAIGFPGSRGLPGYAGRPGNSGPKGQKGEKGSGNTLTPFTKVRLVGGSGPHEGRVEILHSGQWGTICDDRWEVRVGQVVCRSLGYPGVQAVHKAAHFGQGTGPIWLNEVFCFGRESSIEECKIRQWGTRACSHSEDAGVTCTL

B1: H1H21227N-N297Q: "modified versions of 21227N (H1H21227N-N297Q and H1H21227N-N297D)"; anti-MSR1 antibody "with a N297Q single point mutation" (antibody, V domains shown)
VH: QVQLVQSGAEVKKPGASVKVSCKVSGYTLTELSIHWVRQVPGKGLEWMGGFDPEEGETIFAQEFRDRVTLTEDTSPDTAYMELSSLKSEDAAVYYCTTPRYCNNGICYDYWGQGTLVTVSS
VL: DIQMTQSPSSLSASVGDRVTITCRASQSISNYLNWYQQKPGKAPKLLIYTASSLQSGVPSRFSGSGSGTDFTLTISSLQTEDFATYYCQQSYSNFPITFGQGTRLEIKR
B2: H1H21227N: "anti-MSR1 antibodies ... (21227N, 21231N, 21234N) were produced with the original human Fcγ portion"; "H1H" = human IgG1 Fc (antibody, V domains shown)
VH: B1 VH
VL: B1 VL
modifications: human IgG1 Fc
notes: "anti-MSR1 antibodies ; (21227N, 21231N, 21234N) were produced with the original human Fcγ portion"; "H1H" = human IgG1 Fc
B3: H1H21227N-N297D: "The 21227N antibody was also produced as a third version with a N297D mutation" (antibody, V domains shown)
VH: B1 VH
VL: B1 VL
B4: H1H21231N-N297Q: modified version of "21231N (H1H21231N-N297Q) anti-MSR1 antibodies" with "a N297Q single point mutation" (antibody, V domains shown)
VH: EVQLVESGGGLVQPGGSLRLSCAASGFTFSDHYMDWVRQAPGKGLEWVGRTRNKANSHTTEYTASVTGRFTISRDDSRNSLYLQMNSLKTEDTAVYYCVRAGIIGTLFDYWGQGTLVTVSS
VL: B1 VL with S7F, N31S, Y32F, Y36F, L46F, T50A, T80P, N94S, F95P
B5: H1H21231N: "anti-MSR1 antibodies ... (21227N, 21231N, 21234N) were produced with the original human Fcγ portion"; "H1H" = human IgG1 Fc (antibody, V domains shown)
VH: B4 VH
VL: B1 VL with S7F, N31S, Y32F, Y36F, L46F, T50A, T80P, N94S, F95P
modifications: human IgG1 Fc
notes: as for B2

Target: T1, His9-mMSR1 (mouse MSR1 extracellular domain)
Test: OCTET bio-layer interferometry binding kinetics of anti-MSR1 mAbs
Settings: 25° C., antibody-capture format, analyte His9-mMSR1
Method: Binding affinities and kinetic constants of human anti-MSR1 antibodies for different MSR1 reagents were determined using a real time, label-free bio-layer interferometry assay on an OCTET® HTX biosensor platform (Pall FortéBio Corp., Menlo Park, CA). The experiment was performed at 25° C. in 10 mM HEPES, 150 mM NaCl, 3 mM EDTA, 0.05% v/v Surfactant Tween-20, and 1 mg/mL BSA, pH7.4 (HBS-EBT) buffer with the plate shaking at the speed of 1000 rpm. Binding studies were performed on human MSR1 extracellular domain expressed with a N-terminal nonahistidine tag (His9-hMSR1; R&D Systems, Cat #2708-MS), monkey MSR1 extracellular domain expressed with a N-terminal myc-myc-hexahistidine tag (HMM-mfMSR1; SEQ ID NO: 418), and mouse MSR1 extracellular domain expressed with a N-terminal nonahistidine tag (His9-mMSR1; R&D Systems, Cat #1797-MS). The anti-MSR1 monoclonal antibodies were captured by dipping either anti-human Fc (AHC) or anti-mouse Fc (AMC) Octet biosensors in wells containing 5 μg/mL or 10 μg/mL of anti-MSR1 monoclonal antibody for 45-90 seconds. The AHC captured anti-MSR1 monoclonal antibodies were then dipped in wells containing 50 nM of His9-mMSR1, while the AMC captured anti-MSR1 monoclonal antibodies were dipped in wells containing different concentrations of His9-hMSR1 or HMM-mfMSR1 (100 nM, 25 nM) or 100 nM His9-mMSR1. The binding of different MSR1 reagents to the captured anti-MSR1 monoclonal antibody was measured for 4 minutes and the dissociation of monoclonal antibody bound MSR1 reagent was monitored for 8-10 minutes in HBS-EBT buffer.
The association rate (ka) and dissociation rate (kd) were determined by fitting the real-time binding sensorgrams to a 1:1 binding model with mass transport limitation using Scrubber 2.0c curve-fitting software. Binding dissociation equilibrium constant (KD) and dissociative half-life (t½) were calculated from the kinetic rates as: […]
Binding kinetics parameters for His9-hMSR1, HMM-mfMSR1 or His9-mMSR1 binding to different anti-MSR1 monoclonal antibodies of the invention at 25° C. are shown in Tables 8 and 9.

What does the source list for B1?
Kd: 1.89 nM; ka: 374000 M⁻¹ s⁻¹

What does the source list for B2?
Kd: 1.97 nM; ka: 415000 M⁻¹ s⁻¹

Which Kd does the source give for B3 here?
Its Kd is 1.71 nM.

What about the ka of the same molecule?
Its ka is 461000 M⁻¹ s⁻¹.

Same assay, conditions: 25° C., antibody-capture format, analyte His9-mMSR1; * = no dissociation observed, kd manually fixed at 5.00E−05

With B1 as the molecule, how does the kd read?
Its kd is 0.000708 s⁻¹.

With B2 as the molecule, how does the kd read?
Its kd is 0.000816 s⁻¹.

B3 was tested. Which kd did it give?
Its kd is 0.000786 s⁻¹.

Same assay, conditions: 25° C., antibody-capture format, analyte His9-mMSR1; dissociative half-life

With B1 as the molecule, how does the t½ read?
Its t½ is 16 min.

For B2, which t½ is on record?
Its t½ is 14 min.

How did the t½ turn out when B3 was run?
The t½ was 15 min.

Target: T2, Ox-LDL binding to His9-hMSR1
Test: Competition sandwich ELISA, blocking of Ox-LDL binding
Settings: antibody 500 nM, Ox-LDL 10 nM
Method: The ability of anti-MSR1 antibodies disclosed herein to block the binding of various ligands to human MSR1 was measured using three competition sandwich ELISA assays. The ligands used in the assays were: (1) acetylated LDL (Ac-LDL), (2) oxidized LDL (Ox-LDL), and (3) advanced glycation end-products of bovine serum albumin (AGE-BSA).
Anti-MSR1 antibodies or isotype control antibodies were serially diluted as appropriate for each tested ligand and added in duplicate for each serial dilution set to microtiter plates coated with His9-hMSR1. Buffer alone was also added to wells on each coat. […] This assay was conducted in four different assay runs.
Data analysis was performed using a sigmoidal dose-response model within Prism™ software (GraphPad). Percent blockade at maximum concentration of the antibody tested in each assay was calculated as an indicator of the ability of the antibodies to block the binding of Ac-LDL, Ox-LDL or biot-AGE-BSA to His9-hMSR1 on the plate relative to the baseline of the assay. In the calculation, binding signal of the same concentrations of Ac-LDL, Ox-LDL, or biot-AGE-BSA used for the assays in the absence of antibody was referenced as 100% binding or 0% blocking, while the baseline of the assay, defined as binding signal of the sample of buffer without MSR1 ligands or antibody, was referenced as 0% binding or 100% blocking. The maximum percent blockade at the highest concentration of antibody tested in each assay are reported for all antibodies.

With B1 as the molecule, how does the “anti-MSR1 antibody blocking of Ox-LDL binding to His9-hMSR1 % Blocking” value read?
The value was 97%.

B2 was tested. Which “anti-MSR1 antibody blocking of Ox-LDL binding to His9-hMSR1 % Blocking” value did it give?
Its value is 100%.

For B3, which “anti-MSR1 antibody blocking of Ox-LDL binding to His9-hMSR1 % Blocking” value is on record?
The value was 99%.

B4 was tested. Which “anti-MSR1 antibody blocking of Ox-LDL binding to His9-hMSR1 % Blocking” value did it give?
The value was 26%.

Which “anti-MSR1 antibody blocking of Ox-LDL binding to His9-hMSR1 % Blocking” value does the source give for B5 here?
The value was 22%.
